Substrate: Cc1cc(=O)oc2cc(O[C@@H]3O[C@H](CO)[C@@H](O)[C@H](O)[C@H]3O)ccc12
Experiment: purified protein

B1: β-glucocerebrosidase (GBA) (Homo sapiens) (protein)
chain: ARPCIPKSFGYSSVVCVCNATYCDSFDPPTFPALGTFSRYESTRSGRRMELSMGPIQANHTGTGLLLTLQPEQKFQKVKGFGGAMTDAAALNILALSPPAQNLLLKSYFSEEGIGYNIIRVPMASCDFSIRTYTYADTPDDFQLHNFSLPEEDTKLKIPLIHRALQLAQRPVSLLASPWTSPTWLKTNGAVNGKGSLKGQPGDIYHQTWARYFVKFLDAYAEHKLQFWAVTAENEPSAGLLSGYPFQCLGFTPEHQRDFIARDLGPTLANSTHHNVRLLMLDDQRLLLPHWAKVVLTDPEAAKYVHGIAVHWYLDFLAPAKATLGETHRLFPNTMLFASEACVGSKFWEQSVRLGSWDRGMQYSHSIITNLLYHVVGWTDWNLALNPEGGPNWVRNFVDSPIIVDITKDTFYKQPMFYHLGHFSKFIPEGSQRVGLVASQKNDLDAVALMHPDGSAVVVVLNRSSKDVPLTIKDPAVGFLETISPGYSIHTYLWRRQ
Km: 1288 ± 51 µM
Vmax: 11.7 µM/min
kcat: 19.6 s⁻¹

Source: paper PMC7271948, “A baculoviral system for the production of human β-glucocerebrosidase enables atomic resolution analysis” (Acta Crystallographica. Section D, Structural Biology, 2020)
